Source: patent US20250066499A1 (SUNSHINE GUOJIAN PHARMACEUTICAL SHANGHAI, published 2025)

What was measured:
Assay in all cases: ELISA; decline multiple of EC50 against CD73-ND
[1] = target: T1, CD73-ND-L138A (human, UniProt P21589 27-317)
T1 construct: Alanine mutant of CD73-ND
T1 sequence: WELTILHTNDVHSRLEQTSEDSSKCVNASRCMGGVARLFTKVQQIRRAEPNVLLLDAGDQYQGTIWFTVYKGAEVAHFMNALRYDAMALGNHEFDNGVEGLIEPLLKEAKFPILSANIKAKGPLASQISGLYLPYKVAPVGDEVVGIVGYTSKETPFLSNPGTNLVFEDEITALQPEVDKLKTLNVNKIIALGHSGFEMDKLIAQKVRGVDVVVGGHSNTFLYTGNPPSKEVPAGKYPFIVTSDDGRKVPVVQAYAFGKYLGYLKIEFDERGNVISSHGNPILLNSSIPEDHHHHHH
Experimental: (§1) The ELISA plates were coated with SA protein diluted to 1.5 μg/mL in coating buffer (50 mM carbonate coating buffer, pH 9.6) and incubated overnight at 4° C. The supernatant was discarded, and the plates were washed three times with PBST. Then, 5% skimmed milk powder prepared with PBS was added for blocking and the plates were incubated for 2 h at 37° C. After washing the plates once with PBST, CD73-biotin protein (prepared by biotinylating CD73-His protein according to the EZ-Link NHS-Biotin Reagent instructions) was diluted to 0.5 μg/mL and added at 100 μL/well for incubation at room temperature for 1 h. The plates were washed three times with PBST, and the prepared murine-derived monoclonal antibodies against human CD73 were serially diluted with 1% BSA buffer prepared with PBST and added to the ELISA plates at 100 μl/well. The plates were incubated at 37° C. for 1 h. After washing the plates three times with PBST, HRP-labeled goat anti-mouse IgG secondary antibody was added and the plates were incubated for 30 min at 37° C. After washing the plates three times with PBST, the residual droplets were patted dry on absorbent paper as much as possible. Then, 100 μl of TMB color developing solution was added to each well, and the plates were incubated in the dark at room temperature for 5 min for color development. Subsequently, 50 μl of 2M H₂SO₄ stop solution was added to each well to terminate the substrate reaction. The OD values were read at 450 nm using a multimode microplate reader to analyze the binding ability of the tested antibodies to the target antigen human CD73-His.
(§2) Referring to the experimental method in Example 3, the affinity of 48A11-HuV33 for various mutant proteins of CD73-ND was determined. The SA protein was diluted to 1 μg/mL for coating the ELISA plates, and the biotinylated CD73 protein (CD73-biotin) was used at a concentration of 0.1 μg/mL.

[2] = target: T2, CD73-ND-K136A (human, UniProt P21589 27-317)
T2 construct: Alanine mutant of CD73-ND
T2 sequence: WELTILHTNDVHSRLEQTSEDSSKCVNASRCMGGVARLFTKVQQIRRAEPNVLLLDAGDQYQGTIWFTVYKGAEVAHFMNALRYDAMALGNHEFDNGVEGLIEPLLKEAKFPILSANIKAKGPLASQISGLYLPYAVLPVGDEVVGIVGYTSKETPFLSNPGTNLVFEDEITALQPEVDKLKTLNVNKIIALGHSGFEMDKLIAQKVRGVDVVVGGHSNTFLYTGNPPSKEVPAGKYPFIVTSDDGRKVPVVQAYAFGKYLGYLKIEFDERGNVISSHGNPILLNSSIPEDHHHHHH
Experimental: as §1, §2

[3] = target: T3, CD73-ND-L133A (human, UniProt P21589 27-317)
T3 construct: Alanine mutant of CD73-ND
T3 sequence: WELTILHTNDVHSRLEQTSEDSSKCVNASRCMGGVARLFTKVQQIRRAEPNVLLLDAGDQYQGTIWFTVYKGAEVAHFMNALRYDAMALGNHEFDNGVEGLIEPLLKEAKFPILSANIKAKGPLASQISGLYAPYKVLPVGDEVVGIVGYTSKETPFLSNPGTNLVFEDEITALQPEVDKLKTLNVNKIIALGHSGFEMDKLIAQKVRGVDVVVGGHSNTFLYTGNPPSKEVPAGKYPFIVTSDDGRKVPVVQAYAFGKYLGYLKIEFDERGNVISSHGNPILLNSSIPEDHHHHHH
Experimental: as §1, §2

[4] = target: T4, CD73-ND-P134A (human, UniProt P21589 27-317)
T4 construct: Alanine mutant of CD73-ND
T4 sequence: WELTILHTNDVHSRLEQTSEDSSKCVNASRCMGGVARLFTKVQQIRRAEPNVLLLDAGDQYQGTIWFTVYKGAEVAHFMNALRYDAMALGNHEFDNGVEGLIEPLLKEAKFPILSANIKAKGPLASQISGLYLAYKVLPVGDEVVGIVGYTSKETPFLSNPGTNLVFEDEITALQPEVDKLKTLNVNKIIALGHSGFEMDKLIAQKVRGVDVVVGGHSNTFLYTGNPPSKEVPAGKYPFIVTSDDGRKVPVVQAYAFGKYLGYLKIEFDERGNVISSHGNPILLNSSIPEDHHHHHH
Experimental: as §1, §2

[5] = target: T5, CD73-ND-his (human, UniProt P21589 27-317)
T5 construct: Biotinylated and captured on streptavidin in the ELISA
T5 sequence: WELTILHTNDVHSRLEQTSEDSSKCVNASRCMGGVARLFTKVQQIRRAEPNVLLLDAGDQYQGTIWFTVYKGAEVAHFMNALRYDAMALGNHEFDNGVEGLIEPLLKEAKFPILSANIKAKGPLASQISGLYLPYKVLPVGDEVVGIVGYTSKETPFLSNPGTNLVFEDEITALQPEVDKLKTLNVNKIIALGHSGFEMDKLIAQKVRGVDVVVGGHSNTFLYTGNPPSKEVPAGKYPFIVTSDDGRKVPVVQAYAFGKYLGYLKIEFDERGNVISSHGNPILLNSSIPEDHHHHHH
Experimental: as §1, §2

[6] = target: T6, CD73-ND-Y132A (human, UniProt P21589 27-317)
T6 construct: Alanine mutant of CD73-ND
T6 sequence: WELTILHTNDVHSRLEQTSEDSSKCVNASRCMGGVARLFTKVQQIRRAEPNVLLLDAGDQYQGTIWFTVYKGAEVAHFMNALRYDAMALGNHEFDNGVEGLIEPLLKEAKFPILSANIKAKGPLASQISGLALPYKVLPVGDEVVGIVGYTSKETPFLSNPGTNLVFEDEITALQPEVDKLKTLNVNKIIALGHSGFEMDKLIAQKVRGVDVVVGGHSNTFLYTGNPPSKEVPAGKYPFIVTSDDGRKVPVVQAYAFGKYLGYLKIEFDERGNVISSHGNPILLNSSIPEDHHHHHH
Experimental: as §1, §2

B1: 48A11-HuV33 (antibody, human IgG4, V domains shown)
VH: QVQLVQSGAEVKKPGASVKVSCKASGYTFTSYWMHWVRQAPGQGLEWIGEINPSIGRTNYNEKFKSRVTLTRDTSTSTAYMELSSLRSEDTAVYYCARRVYGTMDYWGQGTLVTVSS
VL: DIQMTQSPSSLSASVGDRVTITCKASQDINSYLSWFQQKPGKSPKLLIYRANIWVDGVPSRFSGSGSGQDYTFTISSLQPEDIATYYCLQYDELYTFGQGTKVEIK
notes: Humanized
[1]
  Ratio(EC50): 1.2 fold
[2]
  Ratio(EC50): 1 fold
[3]
  Ratio(EC50): 169 fold
[4]
  Ratio(EC50): 1.3 fold
[5]
  Ratio(EC50): 1 fold
[6]
  Ratio(EC50): 69.2 fold
